Variants at the floor of the assay were thinned out.
B1: TPR 5TU (parent)
chain: GGAUCUUCUCGAUCUAACAAAAAAGACAAAUCUGCCACAAAGCUUGAGAGCAUCUUCGGAUGCAGAGGCGGCAGCCUUCGGUGGCGCGAUAGCGCCAACGUUCUCAACUAUGACACGCAAAACGCGUGCUCCGUUGAAUGGAGUUUAUCAUG

Variants of: B1
Assay: polymerase ribozyme fitness, log enrichment relative to wild type (log ratio); higher = more active; in vitro selection for triplet polymerase activity
In short: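 After PCR construction and transcription, each subunit's mutant library from a heterodimeric triplet polymerase ribozyme was annealed with a biotinylated primer, the partner subunit and triplets. Incubation was frozen, at −7 °C, and extended constructs were gel-excised, bound to streptavidin beads and amplified by RT-PCR, in one selection round done in triplicate. Fitness is the logarithm of a genotype's enrichment divided by that of the wild type, from inverse-variance-weighted replicate averages of Illumina-sequenced inputs and outputs. The base of the logarithm is 2, and genotypes needed ≥10 input reads and ≥1 read per output.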

Row | Variant | polymerase ribozyme fitness (log ratio)
1 | GGAUCUUCUCGAUUUAACAAAAAAGACAAAUCUGCCACAAAGCUUGAGAGCAUCUUCGGAUGCAGAGGCGGCAGCCUUCGUUGUCGCGAUAGCGCCAACGUUCUCAACUAUGACACGCAAAACGCGUGCUCCGUUGAAUGGAGUUUAUCAUG [C14U G81U G84U] | -2.93
2 | GGAUCUUCUCGAUCUAACAAAAAAGAUAAAUUUGCCACAUAGCUUGAGCGCAUUUUCGGAUGCAGAGGCGGCAGCCUUCGGUGGCGUGUUAGCGCCAUCGUUCUCAACUAUGACACGCAAAACGCGUGCUCCGUUGAAUGGAGUUUAUCAUG [C27U C32U A40U A49C C54U C87U A89U A98U] | ≤ -4.2
3 | GGAUCUUCUCGAUCUAACAAAAAAGACAAAUCUGCCACAAAGCUUGAGAGCAUCUUCGGAUGCAGAGGCGGCAGCCUGCGGUGGCGCGAUAGCGCCAACGUUCUCAACUAUGACACGCAAAACGCGUGCUCCGUUGAAUGGAGUUUACCAUG [U78G U148C] | -4.15
4 | GGAUCUUCUCGAUCUAACAAAAAAGACAAAUCUGCCACAAAGCUUGAGAGCAUCUUCGGAUGCAGAGGCGGCAGCCUUCGGUGGCGCGAUAGCGCCAACGUUAUCGACUAUGACACGCAAAACGCGUGCUCCGUUGAAUGGAGUUUAUCAUG [C103A A106G] | -0.927
5 | GGAUCUUCUCGAUCUAACAAAAAAGACAAAUCUGCCACAAAGCUUGAGAGCAUAUUCGGAUGCAGAGGCGGCAGCCUUCGGUGGCUCGAUAGCGCCAACGGUCUCAACUAUGACACGCAAAACGCGUGCUCCGUUGAAUGGAGUUUAUCAUG [C54A G86U U101G] | -3.14
6 | GGAUCUUCUCGAUCUAACAAAAAAGACAAAUCUGCCACAAAGCUUGAGAGCAUCUUCGAAUGCAGAGGCGGCAGCCUUCGGUGGCGCGAUAGCGCGAACGUUCUCAACUAUGACACGCAAAACGCGUGCUCCGUUGAAUGGAGUUUAUCAUG [G59A C96G] | -1.1
7 | GGAUCUUCUCGAUCUAACAAAAAAGACAAAUCUGCCACAAAGCUUGAGAGCAUCUUCGGAUGCAGAGGCGGCAGCCUUCGGUAGCGCGAUAGCGCCAACGUUCUCAACUAUGACACGCAAAACGCGUGCUCCGUUGAAUGAAGUUUAUCAUG [G83A G141A] | 0.227
8 | GGAUCUUCUCGAUCUAACAAAAAAGACAAAUCUGCCUCAAAGCUUGAGAGCAUCUUCGGAUGCAGAGGCGGCAGCCUUCCGUGGCGCGAUCGCGCCAACGUUCUCAACUAUGACACGCAAAACGCGUGCUCCGUUGAAUGGAGUUUAUCUUG [A37U G80C A91C A150U] | ≤ -4.2
9 | GGAUCUUCUCGAUCUAACAAAAAAGACAAAUCUGCCACAAAGCUUGAGAGCAUCUUCGGAUGCAGAGGCGGCAGCCUUCGGUGGCGCGAUAGCGCCAACGUUCUCAACUAUGACACGCAAAACGCGUGCUCCCUUGAAUGGAGUUUAUCAUG [G133C] | -1.65
10 | GGAUCUUCUCGAUCUAACAAAAAAGACAAAUCUGCCACAAAGCUUGAGAGCAUCUUCGGAUGCAGAGGCGGCAGCCUUCGGUGGCGCGAUAGGGCCACCGUUCUCAACUAUGACACGCAUAACGCGUGCUCCGUUGAAUGGAGUUUAUCAUG [C93G A98C A120U] | -3.94
11 | GGGUCUUCUCAAUAUAACAAAAAAGACAAAUCUGCCACAAAGCUUGAGAGCAUCUUCGGAUGCAGAGGCGGCAGCCUUCGGUGGCGCGAUAGCGGAAACGUUGUCAACUAUGACACGCAAAACGCGUGCUCCGUUGAAUGGAGUUUAUCAUG [A3G G11A C14A C95G C96A C103G] | ≤ -4.2
12 | GGAUCUUCUCGAUAUAACAAAAAAGACAAAUCUGCCACAAAGCUUGAGAGCAUCGACGGAUGCAGAGGCGGCAGCCUUCGGUGGCGCGAUAUCGCCAACGUUCUCAACUAUGACACGCAAAACGCGUGCUCCGUUGAAUGGAGUUUAUCGUG [C14A U55G U56A G92U A150G] | -4.11
13 | GGAUCUUCUCGAUCUAACAAAAAAGACAAAUCUGCCACAAAGCUUGAGAGCAUCUUCAGAUGCAGAGGCGGCAGCCUUCGGGGGCGCGAUAGCGCAAACGUUCUCAACUAUGACACGCAAAACGCGUGCUCCGUUGAAUGGGGUUUGUCAUG [G58A U82G C96A A142G A147G] | -3.38
14 | GGAUCUUCUCGAUCUAACAAAAAAGACAAAUCUGCCACAAAGCUUGAGAGCAUCUUCGGAUGCAGAGGCGGCAGCCUUCGGUGGCGCGAUAGCCCUAACGUUCUCAACUAUGACACGCAAAACGCGUGCUCCGUUGAAUGGAGUUUAUCAUG [G94C C96U] | -1.08
15 | GGAUCUUCUCGAUCUAACAAAAAAGACAUAUCUGCCACAAAGCUUGAGAGCAUUUUCGGAUGCAGAGGCGGCAGCCUCCGGUGGCGCGAUAGCGCCAAGGUUCUCAACUAUGACAUGCAAAACGCGUGCUCCGUUGAAUGGAGUUUAUCAUG [A29U C54U U78C C99G C116U] | ≤ -4.2
16 | GGAUCUUCUCGAUCUAACAAAAAAGACAAAUCUGCCACAAUGCUUGAGAGCAUCUUCGGAUGCAGAGGCGGCAGCCUUCGAUGGCGCGAUAGCGCCAACGUUCUCAACUAUGACACGCAAAACGCGUGCUCCGUUGAAUGGAGUUUAUCAUG [A41U G81A] | -0.718
17 | GGAUCUUCUCGAUCUAACAAAAAAGACAAAUCUGCCACAAAGCUUGAGAGCAUCUUCGGAUGCAGAGGCGGCAGCCUUCGGUGGCGCGAUAGAGCCAACGUUCUCAACUAUGACACGCAAAACGCGUGCUCCGUUGAAUGUAGUUUAUCAUG [C93A G141U] | -0.625
18 | GGAUCUUCUCUAUCUAACAAAAAAGACAAAUCUGCCACAAAGCUUGAGAGCAUCUUCGGAUGCAGAGGCGGCAGCCUUCGGUAGCGCGAUAGCGCUAACGUUCUCAACUAUGACACGCAAAACGCGUGCUCCGUUGAAUGGAGUUUAUCAUG [G11U G83A C96U] | -0.589
19 | GGAUCUUCUCGAUCUAACAAAAAAGACAAAUCUGCCACAAAGCUUGAGAGCAUCUUCGGUUGCAGAGGCGGCAGCCUUCGGUGGCGCGAUAGUGCCAACGUUCUCAACUAUGACACGCAAAACGUGUGCUCCGUUGAAUGGAGUUUAUCAUG [A60U C93U C125U] | -2.48

From the RNAGym collection of RNA variant scans (doi:10.1073/pnas.2313332121)
